This test deals with T1, polyUb-E6AP (resin-bound E6AP autoubiquitinated with K48-linked polyubiquitin chains) (UniProt Q05086 1-875; P0CG48 1-76, K48-linked polyubiquitin chains of undefined length attached by autoubiquitination; sites not stated | ubiquitins joined to each other by K48 isopeptide linkages and to E6AP; chain length undefined).
T1 construct: HECT E3 ligase E6AP; ubiquitin, the mature 76-residue protein, wild type; Covalent conjugate held on resin; also called K48-polyUb conjugates; polyubiquitinated E6AP; source: E3 enzyme expressed in E. coli and purified
In words: pull-down; resin-bound polyUb-E6AP and polyUb-Ube2SΔ incubated with 100 nM purified Rpn10-UIM, hHR23A or hHR23B for 30 min at 4°C, washed; bound proteins by immunoblot for His (Rpn10) or hHR23A/B. To be noted: both partners purified. Background: In western blotting, separated proteins are transferred to a membrane and probed.

B1: recombinant Ub-interacting motif (UIM) of Rpn10 (domain or fragment)
chain: MLGLGASDFEFGVDPSADPELALALRVSMEEQRQRQEEEARRAAAASAAEAGIATTGTEDSDDALLKMTISQQEFGRTGLPDLSSMTEEEQIAYAMQMSLQGAEFGQAESA
B1: the “fold binding relative to K11 chains (polyUb-Ube2SΔ), ImageJ quantification” value is roughly 4 fold.
